Stoichiometry N data for 1 substance are collected here from article PMC4754705.

This assay addresses Envy. Nature of the assay: SEC; gel filtration on a Superdex 200 column; 100 μL of 10 μM purified protein loaded, flow rate 0.5 ml/min, elution monitored by absorbance at 280 nm; self-association (monomer or dimer).

Take Envy: the stoichiometry N came out at 2.
